# Test results taken from patent US20160200831A1 (Sanofi, published 2016).
# Target: T1, cynomolgus PAI-1 (cynomolgus monkey (Macaca fascicularis), UniProt P05121 24-402 (human entry))
# T1 construct: produced in-house in E. coli (non-glycosylated); active cyno PAI-1 in the assays; also called cyno PAI-1; cPAI-1
# Assay: Biacore
# T1 sequence (P05121 other isoform, or with tags, fused parts or gaps limits assumed): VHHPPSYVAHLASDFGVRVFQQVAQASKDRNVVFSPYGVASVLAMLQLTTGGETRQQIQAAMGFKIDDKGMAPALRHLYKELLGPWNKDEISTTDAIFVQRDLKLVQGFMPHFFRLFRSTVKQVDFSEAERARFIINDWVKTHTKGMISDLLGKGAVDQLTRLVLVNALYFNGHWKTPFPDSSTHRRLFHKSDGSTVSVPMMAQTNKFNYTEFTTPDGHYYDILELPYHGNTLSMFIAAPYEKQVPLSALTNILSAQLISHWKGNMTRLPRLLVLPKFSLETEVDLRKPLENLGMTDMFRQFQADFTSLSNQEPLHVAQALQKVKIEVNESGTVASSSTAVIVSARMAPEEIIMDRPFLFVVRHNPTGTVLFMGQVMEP
row,Binder,binding result
1,"A44-hv1 (antibody, V domains shown, humanized A44, HEK293; also called LC1a x HC1a; variant 1) VH: EMTLKESGPTLVKPTQTLSLTCSVTGDSMTNGYWNWIRKFPGKALEYMGYITYSGSTYYNPSLKGRISITRNTSKNQYYLTLSSVTTVDTATYYCARWHYGSPYYFDYWGQGTTLTVSS VL: DIKMTQSPSSLSASVGDRVTITCKASQDINSYLSWLQQKPGKSPKTLIYRANRSVDGVPSRFSGSGSGQDYSLTISSLQPEDLGIYYCLQYDEFPPTFGGGTKLEIK",binds
2,"A44-hv4 (antibody, V domains shown, humanized A44, HEK293; constant regions as for A44-hv1; also called LC1a x HC2b; variant 4) VH: EMTLKESGPTLVKPTQTLSLTCSVTGDSMTQGYWNWIRKFPGKALEYMGYITYSGSTYYNPSLKGRISITRNTSKNQYYLTLSSVTTVDTATYYCARWHYGSPYYFDYWGQGTTLTVSS VL: DIKMTQSPSSLSASVGDRVTITCKASQDINSYLSWLQQKPGKSPKTLIYRANRSVDGVPSRFSGSGSGQDYSLTISSLQPEDLGIYYCLQYDEFPPTFGGGTKLEIK",binds
3,"A44-hv5 (antibody, V domains shown, humanized A44, HEK293; constant regions as for A44-hv1; also called LC2 x HC2b; variant 5) VH: EMTLKESGPTLVKPTQTLSLTCSVTGDSMTQGYWNWIRKFPGKALEYMGYITYSGSTYYNPSLKGRISITRNTSKNQYYLTLSSVTTVDTATYYCARWHYGSPYYFDYWGQGTTLTVSS VL: DIKMTQSPSSLSASVGDRVTITCKASQDINSYLSWLQQKPGKSPKTLIYRAQRSVEGVPSRFSGSGSGQDYSLTISSLQPEDLGIYYCLQYDEFPPTFGGGTKLEIK",binds
4,"A44-hv6 (antibody, V domains shown, humanized A44, HEK293; constant regions as for A44-hv1; also called LC3 x HC3; variant 6) VH: QMTLKESGPTLVKPTQTLSLTCSVSGDSMTNGYWNWIRQFPGKALEYMGYITYSGSTYYNPSLKGRITITRDTSKNQYYLTLSSVTTVDTATYYCARWHYGSPYYFDYWGQGTTLTVSS VL: DIKMTQSPSSLSASVGDRVTITCKASQDINSYLSWLQQKPGKSPKTLIYRANRSVDGVPSRFSGSGSGQDYSLTISSLQPEDLATYYCLQYDEFPPTFGGGTKLEIK",binds
5,"A44-hv7 (antibody, V domains shown, humanized A44, HEK293; constant regions as for A44-hv1; also called LC4 x HC4; variant 7) VH: QMTLKESGPTLVKPTQTLSLTCSVSGESMTQGYWNWIRQFPGKALEYMGYITYSGSTYYNPSLKGRITITRQTSKNQYYLTLSSVTTVETATYYCARWHYGSPYYFDYWGQGTTLTVSS VL: DIKMTQSPSSLSASVGDRVTITCKASQDINSYLSWLQQKPGKSPKTLIYRAQRSVEGVPSRFSGSGSGQDYSLTISSLQPEDLATYYCLQYDEFPPTFGGGTKLEIK",binds
6,"A44-hv2 (antibody, V domains shown, humanized A44, HEK293; constant regions as for A44-hv1; also called LC1b x HC1b; variant 2) VH: EMQLQESGPGLVKPSETLSLTCSVTGDSMTNGYWNWIRKFPGKGLEYMGYITYSGSTYYNPSLKGRISITRNTSKNQYYLKLSSVTTADTATYYCARWHYGSPYYFDYWGQGTTLTVSS VL: DIKMTQSPSSVSVSPGQTVTITCKASQDINSYLSWLQQKPGQSPKTLIYRANRSVDGVPSRFSGSGSGQDYSLTISSLQAMDEGIYYCLQYDEFPPTFGGGTKLTIK",binds
7,"A44-hv9 (antibody, V domains shown, humanized A44, HEK293; constant regions as for A44-hv1; also called LC5b x HC5b; variant 9) VH: QMQLQESGPGLVKPSETLSLTCTVSGDSMTNGYWNWIRQPPGKGLEYMGYITYSGSTYYNPSLKSRITISRDTSKNQYSLKLSSVTAADTAVYYCARWHYGSPYYFDYWGQGTLVTVSS VL: DIQMTQSPSSLSASVGDRVTITCKASQDINSYLSWLQQKPGKAPKTLIYRANRSVDGVPSRFSGSGSGQDYTFTISSLQPEDIATYYCLQYDEFPPTFGGGTKVEIK",binds
